The labels stand for the following.
B1: TRTK12 peptide (peptide)
chain: TRTKIDWNKILS
B2: S100A5 (natural protein)
chain: METPLEKALTTMVTTFHKYSGREGSKLTLSRKELKELIKKELCLGEMKESSIDDLMKSLDKNSDQEIDFKEYSVFLTMLCMAYNDFFLEDNK

Experiment [1] addresses B2. The experiment is described as follows: FP; competition against fIF.
Experiment [2] addresses B2. The experiment is described as follows: FP; competition against fWL.
In experiment [3] the target is fIF, fluorescently labelled H14 foldamer IF (β-peptidic hexamer: β3-amino acids with proteinogenic side chains (I, F) in positions 2 and 5, ACHC (trans-2-aminocyclohexancarboxylic acid) residues; 5(6)-carboxyfluorescein on the ε-amino group of …). The experiment is described as follows: FP.
Experiment [4] has as its target fWL, fluorescently labelled H14 foldamer WL (β-peptidic hexamer: β3-amino acids with proteinogenic side chains (W, L) in positions 2 and 5, ACHC (trans-2-aminocyclohexancarboxylic acid) residues; 5(6)-carboxyfluorescein on the ε-amino group of …). Put plainly: FP.

A word on the Kd: it is a measure of binding affinity in units of concentration. Read a low Kd as tighter binding. As to B1, the Kd in the experiment with S100A5 [1] amounted to 2.4 µM; with S100A5 [2], 4.9 µM.

In the case of B2, the Kd came to 32 µM in experiment [3] and 7.9 µM in experiment [4].

These data come from publication PMC8991199 (2022).
